This assay concerns the target regulatory domain of OxyR (NMB0173) from Neisseria meningitidis, reduced form (N. meningitidis). Nature of the assay: crystal structure; selenomethionine protein, His tag removed, 9 mg/ml in 20 mM Tris pH 7.5, 200 mM NaCl, 2 mM TCEP; reservoir 20% w/v PEG 3350, 0.2 M calcium acetate; 2.4 Å; dimer in the asymmetric unit.

Data on one substance can be found in publication PMC2881104.

For orientation: stoichiometry N means a count of units in the complex or per binding partner. “regulatory domain of OxyR (NMB0173) from Neisseria meningitidis, reduced form (domain or fragment)”: the stoichiometry N was 2.
